Source: patent US20210275545A1 (YEDA RESEARCH AND DEVELOPMENT, published 2021)

B4: FLI1, untagged (other, UniProt Q01543 1-452, looked up)
chain: MDGTIKEALSVVSDDQSLFDSAYGAAAHLPKADMTASGSPDYGQPHKINPLPPQQEWINQPVRVNVKREYDHMNGSRESPVDCSVSKCSKLVGGGESNPMNYNSYMDEKNGPPPPNMTTNERRVIVPADPTLWTQEHVRQWLEWAIKEYSLMEIDTSFFQNMDGKELCKMNKEDFLRATTLYNTEVLLSHLSYLRESSLLAYNTTSHTDQSSRLSVKEDPSYDSVRRGAWGNNMNSGLNKSPPLGGAQTISKNTEQRPQPDPYQILGPTSSRLANPGSGQIQLWQFLLELLSDSANASCITWEGTNGEFKMTDPDEVARRWGERKSKPNMNYDKLSRALRYYYDKNIMTKVHGKRYAYKFDFHGIAQALQPHPTESSMYKYPSDISYMPSYHAHQQKVNFVPPHPSSMPVTSSSFFGAASQYWTSPTGGIYPNPNVPRHPNTHVPSHLGSYY
notes: Stands for endogenous FLI1 (HEK-293T, A673) in co-immunoprecipitation and PLA, and for FLI1 from an expression vector in the reporter assays; also called endogenous FLI1

Key:
FLI1, untagged = target: B4; experiment: co-immunoprecipitation with anti-Gluc antibody, immunoblot for endogenous FLI1, HEK-293 cells (FIG. 3D)
Method: (§1) HEK-293T cells (6×10³) were seeded in each well of 96-well plates. […] Cells were lysed after 24 hours and processed for co-immunoprecipitation assays, in which the Gluc protein was immunoprecipitated using a specific antibody. […] Blots are representative of three or more biological replicates. […] Similarly, the input of recombinant proteins is shown in the middle panels of C and D. Both molecular weights and relative quantities of individual Gluc fusion proteins are shown by means of immunoblotting with an antibody to Gluc. Individual fusion proteins are identified by numbers and their molecular weights are calculated below each panel.

Gluc1-PU.1 [1] = target: T1, Gluc1-PU.1 (UniProt P17947-2 1-271); experiment: PCA in HEK-293T cells, estradiol 10 nM 60 min (FIG. 8C)
T1 construct: not shown: Gaussia luciferase (Gluc), amino-terminal fragment Gluc1, amino acids 1-93
Method: (A) HEK-293T cells (6×10³) were seeded in 96-well plates. […] (B and C) HEK-293T cells (6×10³) were seeded in 96-well plates. […] Cells were then lysed and luminescence was determined.

Gluc1-PU.1 [2] = target: T1, Gluc1-PU.1; experiment: PCA (split Gaussia luciferase) in HEK-293 cells, DEX 1.0 µM 60 min (FIG. 1B)
From the text: EB, empty beads; C, solvent control. Images shown are representative of three biological replicates.
The resulting luminescence was normalized to the signal associated with cells treated with vehicle only.

[3] = target: T2, glucocorticoid receptor (GR), untagged (human, UniProt P04150 1-777); experiment: cell-based or functional assay
T2 sequence (looked up): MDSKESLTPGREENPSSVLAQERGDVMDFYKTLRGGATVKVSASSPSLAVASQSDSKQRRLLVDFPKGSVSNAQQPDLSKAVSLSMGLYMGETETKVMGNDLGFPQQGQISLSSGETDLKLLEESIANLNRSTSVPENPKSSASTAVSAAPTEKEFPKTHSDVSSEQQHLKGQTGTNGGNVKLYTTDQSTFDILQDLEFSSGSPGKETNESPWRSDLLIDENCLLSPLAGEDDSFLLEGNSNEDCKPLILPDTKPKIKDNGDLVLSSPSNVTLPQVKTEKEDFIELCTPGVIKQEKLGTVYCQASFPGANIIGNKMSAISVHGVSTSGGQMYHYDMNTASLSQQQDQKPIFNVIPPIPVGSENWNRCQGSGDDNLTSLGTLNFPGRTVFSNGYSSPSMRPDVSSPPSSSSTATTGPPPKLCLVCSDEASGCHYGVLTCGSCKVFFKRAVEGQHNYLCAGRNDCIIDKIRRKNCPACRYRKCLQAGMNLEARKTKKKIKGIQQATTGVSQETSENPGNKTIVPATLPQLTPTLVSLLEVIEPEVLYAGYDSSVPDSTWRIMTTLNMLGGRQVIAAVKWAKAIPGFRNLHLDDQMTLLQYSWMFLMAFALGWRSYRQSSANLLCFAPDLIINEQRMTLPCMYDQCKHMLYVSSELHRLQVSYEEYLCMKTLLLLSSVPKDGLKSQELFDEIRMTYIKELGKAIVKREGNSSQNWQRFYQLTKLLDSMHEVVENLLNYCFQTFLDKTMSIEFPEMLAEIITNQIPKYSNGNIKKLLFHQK

[4] = target: T3, GR NTD+DBD-Gluc2 (NTD and DBD of GR fused to Gluc2) (human, UniProt P04150 1-486); experiment: co-immunoprecipitation with anti-Gluc antibody, immunoblot for endogenous FLI1, HEK-293 cells (FIG. 3D)
T3 construct: domain: NTD+DBD;range 94-169; not shown: Gaussia luciferase (Gluc), carboxyl-terminal fragment Gluc2, amino acids 94-169
T3 sequence (looked up): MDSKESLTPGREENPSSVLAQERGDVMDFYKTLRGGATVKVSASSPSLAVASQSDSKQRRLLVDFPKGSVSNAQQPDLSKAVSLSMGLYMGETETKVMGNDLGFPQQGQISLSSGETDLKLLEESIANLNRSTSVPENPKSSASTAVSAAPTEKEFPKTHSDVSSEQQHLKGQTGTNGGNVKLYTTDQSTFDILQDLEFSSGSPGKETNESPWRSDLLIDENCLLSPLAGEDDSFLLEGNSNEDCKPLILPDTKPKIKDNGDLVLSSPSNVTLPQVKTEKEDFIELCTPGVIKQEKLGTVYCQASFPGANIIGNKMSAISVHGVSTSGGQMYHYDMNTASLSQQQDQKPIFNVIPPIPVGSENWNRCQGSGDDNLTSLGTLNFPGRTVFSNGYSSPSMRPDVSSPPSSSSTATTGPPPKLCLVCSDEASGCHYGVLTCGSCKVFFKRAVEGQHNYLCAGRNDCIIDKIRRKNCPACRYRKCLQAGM
Method: as §1

B1: GR NTD-Gluc2 (NTD of GR fused to Gluc2) (other, UniProt P04150 1-420, looked up, not shown: large carriers)
chain: MDSKESLTPGREENPSSVLAQERGDVMDFYKTLRGGATVKVSASSPSLAVASQSDSKQRRLLVDFPKGSVSNAQQPDLSKAVSLSMGLYMGETETKVMGNDLGFPQQGQISLSSGETDLKLLEESIANLNRSTSVPENPKSSASTAVSAAPTEKEFPKTHSDVSSEQQHLKGQTGTNGGNVKLYTTDQSTFDILQDLEFSSGSPGKETNESPWRSDLLIDENCLLSPLAGEDDSFLLEGNSNEDCKPLILPDTKPKIKDNGDLVLSSPSNVTLPQVKTEKEDFIELCTPGVIKQEKLGTVYCQASFPGANIIGNKMSAISVHGVSTSGGQMYHYDMNTASLSQQQDQKPIFNVIPPIPVGSENWNRCQGSGDDNLTSLGTLNFPGRTVFSNGYSSPSMRPDVSSPPSSSSTATTGPPPKL
notes: domain: NTD;range 94-169
FLI1, untagged
  binding result: no binding

B2: ERα-Gluc2 (estrogen receptor alpha fused to Gluc2) (receptor, UniProt P03372 1-595, looked up)
chain: MTMTLHTKASGMALLHQIQGNELEPLNRPQLKIPLERPLGEVYLDSSKPAVYNYPEGAAYEFNAAAAANAQVYGQTGLPYGPGSEAAAFGSNGLGGFPPLNSVSPSPLMLLHPPPQLSPFLQPHGQQVPYYLENEPSGYTVREAGPPAFYRPNSDNRRQGGRERLASTNDKGSMAMESAKETRYCAVCNDYASGYHYGVWSCEGCKAFFKRSIQGHNDYMCPATNQCTIDKNRRKSCQACRLRKCYEVGMMKGGIRKDRRGGRMLKHKRQRDDGEGRGEVGSAGDMRAANLWPSPLMIKRSKKNSLALSLTADQMVSALLDAEPPILYSEYDPTRPFSEASMMGLLTNLADRELVHMINWAKRVPGFVDLTLHDQVHLLECAWLEILMIGLVWRSMEHPGKLLFAPNLLLDRNQGKCVEGMVEIFDMLLATSSRFRMMNLQGEEFVCLKSIILLNSGVYTFLSSTLKSLEEKDHIHRVLDKITDTLIHLMAKAGLTLQQQHQRLAQLLLILSHIRHMSNKGMEHLYSMKCKNVVPLYDLLLEMLDAHRLHAPTSRGGASVEETDQSHLATAGSTSSHSLQKYYITGEAEGFPATV
notes: not shown: Gaussia luciferase (Gluc), carboxyl-terminal fragment Gluc2, amino acids 94-169
Gluc1-PU.1 [1]
  binding result: no binding

B3: GR-Gluc2 (full-length glucocorticoid receptor fused at its carboxyl terminus to Gluc2) (receptor, UniProt P04150 1-777, looked up)
chain: MDSKESLTPGREENPSSVLAQERGDVMDFYKTLRGGATVKVSASSPSLAVASQSDSKQRRLLVDFPKGSVSNAQQPDLSKAVSLSMGLYMGETETKVMGNDLGFPQQGQISLSSGETDLKLLEESIANLNRSTSVPENPKSSASTAVSAAPTEKEFPKTHSDVSSEQQHLKGQTGTNGGNVKLYTTDQSTFDILQDLEFSSGSPGKETNESPWRSDLLIDENCLLSPLAGEDDSFLLEGNSNEDCKPLILPDTKPKIKDNGDLVLSSPSNVTLPQVKTEKEDFIELCTPGVIKQEKLGTVYCQASFPGANIIGNKMSAISVHGVSTSGGQMYHYDMNTASLSQQQDQKPIFNVIPPIPVGSENWNRCQGSGDDNLTSLGTLNFPGRTVFSNGYSSPSMRPDVSSPPSSSSTATTGPPPKLCLVCSDEASGCHYGVLTCGSCKVFFKRAVEGQHNYLCAGRNDCIIDKIRRKNCPACRYRKCLQAGMNLEARKTKKKIKGIQQATTGVSQETSENPGNKTIVPATLPQLTPTLVSLLEVIEPEVLYAGYDSSVPDSTWRIMTTLNMLGGRQVIAAVKWAKAIPGFRNLHLDDQMTLLQYSWMFLMAFALGWRSYRQSSANLLCFAPDLIINEQRMTLPCMYDQCKHMLYVSSELHRLQVSYEEYLCMKTLLLLSSVPKDGLKSQELFDEIRMTYIKELGKAIVKREGNSSQNWQRFYQLTKLLDSMHEVVENLLNYCFQTFLDKTMSIEFPEMLAEIITNQIPKYSNGNIKKLLFHQK
notes: domain: full length;range 94-169; Expressed in HEK-293/HEK-293T cells by transfection; also called Gluc2-GR; not shown: Gaussia luciferase (Gluc), carboxyl-terminal fragment Gluc2, amino acids 94-169
Gluc1-PU.1 [2]
  binding result: binds

## B4
[3]
  GRE activity, luciferase reporter (FIG. 4D): 17 fold
  GRE activity, luciferase reporter, endogenous GR with DEX (FIG. 4E): ~2 fold
[4]
  binding result: no binding
